Test [1] concerns pancreatic β-cells. The test is described as follows: Surface ratio of β-cells to α-cells in STZ mice administered synthetic polypeptides A-C. The test is classed as in vivo, C57BL/6 mouse. The settings on record: STZ mouse, 25 nmol/kg body weight i.p. twice daily for eight weeks; vs saline; FIG. 8. As to the method: In the sixth embodiment, the action of synthetic polypeptides A-C on Type-1 diabetes STZ model mice was confirmed in the same manner as the third embodiment.
Firstly a 7-week old C57BL/6 mouse (body weight approximately 18-20 g) was fasted for 18 hours from day 0 and then streptozocin dissolved in saline (100 mg/kg body weight) was administered into the interperitoneal region and free feeding was immediately allowed. […] The serum blood-glucose level was measured on the seventh day. A fasting blood glucose level of greater than or equal to 150 mg/dL was determined as diabetes and the experiment described hereafter was conducted. STZ mice determined to have diabetes were administered into the interperitoneal region twice daily the polypeptide A-C (25 nmol/kg body weight) dissolved in saline for eight weeks from the seventh day.
The pancreas of the STZ mice was removed and after fixing the tissue with paraformaldehyde, the tissue sample preparation office at University of Tsukuba was employed to prepare a paraffin-embedded section. […] The section was thereafter mounted on a fluorescence photobleaching prevention agent (VECTASHILD Mounting Medium; Vector) and observed through a fluorescence microscope (BZ-8000; KEYENCE) to measure the surface ratio (β-cells/α-cells) of β-cells to α-cells. […]

The subject of another test is MIN6 cells. The test is described as follows: Glucose-stimulated insulin secretion (GSIS) in MIN6 cells stimulated with culture supernatant of CF266-transfected HEK293T cells. The test is classed as cell-based, murine. The settings on record: culture supernatant of transfected HEK293T cells : KRBH buffer 1:1 (v/v), stimulated one hour, vs Mock, FIG. 2. The protocol:
In Embodiment 1, an action was confirmed with respect to MIN6 cells using a culture supernatant of a HEK293T cell strain originating from fetal kidney epithelial cells transfected with CF266.
Firstly, HEK293T cells subcultured in DMEM media enriched with 5% FCS and an antibiotic (penicillin 100 U/mL, streptomycin […]) were plated onto a 10 cm dish at a concentration of 1×10^6 cells/dish. On the following day, HEK292T cells were transfected with an expression vector for mCF266 (pCAGGS-mCF266) using a FuGENE6 (Roche) and mCF266 was forcibly expressed. After 24 hours, the media was exchanged for Opti-MEM media and after a further 24 hours, a culture supernatant was recovered.
Next, MIN6 cells subcultured in DMEM media (high glucose, Invitrogen) enriched with 15% FCS, an antibiotic (penicillin 100 U/mL, streptomycin […]) and 2-mercaptoethanol were plated onto a 24-well plate at a concentration of 3×10^5 cells/well. On the following day, 0.5 mL/well KRBH buffer solution (2.8 mM glucose) was added and pre-culturing was conducted for 30 minutes. Then 0.5 mL/well of a mixed solution of the above culture supernatant and KRBH buffer solution (1:1(v/v)) was added and stimulated for one hour. Then glucose-stimulated insulin secretion (GSIS) was measured for the MIN6 cells. […]

In test [2] the test system is type-1 diabetes STZ model mouse. The experiment in a line: Oral glucose tolerance test after adenoviral expression of hCF266(27V) in STZ model mouse. The test is classed as in vivo, C57BL/6 mouse. The settings on record: adenovirus i.v. 1×10^9 PFU/mL on day 7, OGTT on twelfth day, vs Ad GFP or Ad (−), FIG. 5. As to the method: In the fourth embodiment, an adenoviral vector expressing hCF266(27V) was used to confirm the action of hCF266(27V) with respect to an STZ model mouse which is a type-1 diabetes model mouse.
Firstly a 7-week old C57BL/6 mouse (body weight approximately 18-20 g) was fasted for 18 hours from day 0 and then streptozocin dissolved in saline (100 mg/kg body weight) was administered into the interperitoneal region and free feeding was immediately allowed. From the following day, after fasted for 18 hours the same amount of streptozocin was re-administered on the second day into the interperitoneal region and free feeding was immediately allowed. The serum blood-glucose level was measured on the seventh day. A fasting blood glucose level of greater than or equal to 150 mg/dL was determined to be diabetes and the experiment described hereafter was conducted. On the same day, a recombinant adenovirus (prepared using ViraPower which is a tradename of Invitrogen) constructed by linking hCF266(27V) to a CAG promoter was intravenously injected at a concentration of 1×10^9 PFU/mL into the caudal vein of a STZ mouse determined to be suffering diabetes. On the twelfth day, an oral glucose tolerance test (OGTT) was performed by periodically taking blood and measuring the blood-glucose level of the serum and the insulin level. […]

In test [3] the test system is pancreatic β-cells. The test is described as follows: Surface ratio of β-cells to α-cells in pancreas sections of STZ mice given hCF266(27V) adenovirus. The settings on record: STZ mouse, adenoviral expression; vs Ad GFP or Ad (−); FIG. 6. The test is classed as in vivo, C57BL/6 mouse. The protocol: Firstly a 7-week old C57BL/6 mouse (body weight approximately 18-20 g) was fasted for 18 hours from day 0 and then streptozocin dissolved in saline (100 mg/kg body weight) was administered into the interperitoneal region and free feeding was immediately allowed. From the following day, after fasted for 18 hours the same amount of streptozocin was re-administered on the second day into the interperitoneal region and free feeding was immediately allowed. The serum blood-glucose level was measured on the seventh day. A fasting blood glucose level of greater than or equal to 150 mg/dL was determined to be diabetes and the experiment described hereafter was conducted. On the same day, a recombinant adenovirus (prepared using ViraPower which is a tradename of Invitrogen) constructed by linking hCF266(27V) to a CAG promoter was intravenously injected at a concentration of 1×10^9 PFU/mL into the caudal vein of a STZ mouse determined to be suffering diabetes. On the twelfth day, an oral glucose tolerance test (OGTT) was performed by periodically taking blood and measuring the blood-glucose level of the serum and the insulin level.
The pancreas of the STZ mice was removed and after fixing the tissue with paraformaldehyde, the tissue sample preparation office at University of Tsukuba was employed to prepare a paraffin-embedded section. […]

Test [4] has as its system type-2 diabetes model KK/Ay mouse. The experiment in a line: Intravenous glucose tolerance test after adenoviral expression of mCF266 in KK/Ay mouse. The test is classed as in vivo. The settings on record: adenoviral vector i.v. 6×10^9 PFU/mL, after four days, vs Ad GFP. From the text: In the second embodiment, an adenoviral vector expressing mCF266 was used to confirm the action of mCF266 with respect to a KK/Ay mouse which is a type-2 diabetes model mouse.
Firstly an adenoviral vector (prepared using ViraPower which is a tradename of Invitrogen) constructed by linking mCF266 to a CAG promoter was intravenously injected at a concentration of 6×10^9 PFU/mL into the caudal vein of a 18-week old KK/Ay mouse (body weight approximately 47-51 g) given a high-fat high-sucrose diet. After four days, an intravenous glucose tolerance test (i.v. GTT) was performed by periodically taking blood and measuring the blood-glucose level of the serum and the insulin level.
Consequently expression of mCF266 is shown to induce insulin secretion.

In test [5] the test system is pancreatic β-cells. The test is described as follows: Surface area and number of β-cells (islets of Langerhans) in mCF266 transgenic mice. The test is classed as in vivo, mouse. The protocol: Firstly, an mCF266 expression vector (pCAGGS-mCF266) was constructed by linking mCF266 to a CAG promoter and linearized. The University of Tsukuba Laboratory Animal Resource Center was employed to produce a transgenic mouse. The introduced gene was confirmed using PCR and southern blotting and mating for five generations with C57BL/6 mice was conducted.
The pancreas of the transgenic mice was removed and after fixing the tissue with paraformaldehyde, the tissue sample preparation office at University of Tsukuba was employed to prepare a paraffin-embedded section. After the section was removed from paraffin, antigen activation was performed for 30 minutes at room temperature using 0.1% Triton X-100 and then blocking was performed for one hour at room temperature using 5% skim milk. After blocking, a primary antibody reaction was performed overnight at 4° C. using polyclonal anti-insulin guinea pig antibody (Daco) and polyclonal anti-glucagon rabbit antibody (Daco). The section was washed using Tris-buffered saline containing 0.1% Tween20 (TBST). […] The section was thereafter mounted on a fluorescence photobleaching prevention agent (VECTASHILD Mounting Medium; Vector) and observed through a fluorescence microscope (BZ-8000; KEYENCE) to measure the surface area of islets of Langerhans stained by insulin relative to the pancreas surface area on the section. […]

For the molecule “ALYCMLISIQALLKGPLMC (Human) [polypeptide A, 19 amino acid fragment, 98-116th amino acids of the hCF266(27V) polypeptide]”, the “surface ratio (β-cells/α-cells) β-cells to α-cells” value in the test with pancreatic β-cells [1] is “excellent”.

B1: hCF266(27V): Human DNA SEQ. ID. No. 4 encoding TM4SF20, 27th amino acid valine; tested as transfected-cell supernatant and adenoviral vector (protein)
chain: MTCCEGWTSCNGFSLLVLLLLGVVLNVIPLIVSLVEEDQFSQNPISCFEWWFPGIIGAGLMAIPATTMSLTARKRACCNNRTGMFLSSLFSVITVIGALYCMLISIQALLKGPLMCNSPSNSNANCEFSLKNISDIHPESFNLQWFFNDSCAPPTGFNKPTSNDTMASGWRASSFHFDSEENKHRLIHFSVFLGLLLVGILEVLFGLSQIVIGFLGCLCGVSKRRSQIV
modifications: Human
notes: ID; No. 4 encoding TM4SF20, 27th amino acid valine; tested as transfected-cell supernatant and adenoviral vector
Regarding B1, the “glucose-stimulated insulin secretion (GSIS)” value in the test with MIN6 cells is recorded as “excellent action”. Besides, the “blood glucose level (OGTT)” value in test [2] is “significantly reduced”. In addition, the “surface ratio (β-cells/α-cells) of β cells to α cells” value in the test on pancreatic β-cells [3] was “significantly increased”.

B2: mCF266: Murine DNA SEQ. ID. No. 1 encoding membrane protein Tm4sf20; tested as transfected-cell supernatant, adenoviral vector and transgene (protein)
chain: MTCCEGWTSCNGFSLLILILLGVVINCIPLGISLVEADSTSQNPISCYEWWFPGIIGAGLMAIPATTMSLAARKRACCNNKTGMFLSSLFSVITVVGAVYCMLVSLQALLEGPLICNTQANSTVTCEFSLKNLSKFDPESFNLLWFFNGTCVSPTDFKNPTINNMVSNWKIPNSNSEEDRHRIFHFSVFMSLLLVGILELLFGLSQILIGFLGCLCGVSQRRSQIV
modifications: Mouse
notes: ID; No. 1 encoding membrane protein Tm4sf20; tested as transfected-cell supernatant, adenoviral vector and transgene
For the molecule B2, the “blood-glucose level (i.v. GTT)” value in test [4] (FIG. 3A) is recorded as “only a slightly low tendency”. Further, in test [4] (FIG. 3B), the “insulin value (i.v. GTT)” value is listed as “significantly higher”. Further, the “number of β-cells” value with pancreatic β-cells [5] (transgenic mice hetero (+/−) or homo (+/+) vs wild-type (normalized to 1), FIG. 7B) is listed as “conspicuously increased”. The “surface area of β-cells” value in the test on pancreatic β-cells [5] (transgenic mice hetero (+/−) or homo (+/+) vs wild-type, FIG. 7A) is “conspicuously increased”.

For the origin of these results see patent US20100168026A1, “INSULIN SECRETION INDUCER, AND ACCELERATOR FOR INCREASING THE NUMBER OF PANCREATIC BETA-CELLS” (priority 2007, published 2010).
